Measured values as given in US20250297012A1 (HEFEI TG IMMUNOPHARMA, published 2025).

Key:
[1] = target: T1, human CD16B^SH (Sino Biological, 11046-H08H2) (human, UniProt O75015 17-200); assay: ELISA, plate coated with human CD16B^SH at 2 µg/mL, HRP-goat anti-mouse IgG, OD450
T1 construct: Bought protein; SH polymorphic form; also called human CD16B^SH protein
Procedure: (§1) The ELISA experiment was performed to detect the binding properties of the murine CD16A antibody m40F5 obtained in Example 1. […] Then, the plate was then washed three times with PBST (0.05% Tween 20-PBS, pH 7.2). 300 μL of blocking buffer (1% BSA, 0.05% Tween20-PBS, pH 7.2) was added to the plate and left to stand at room temperature for 2 hours. Then, the plate was washed again three times with PBST. Murine antibody m40F5 or control antibody LS21 (WO2006/125668 EN) was added to each well and incubated at room temperature for 1 hour.
(§2) Again, the plate was washed three times with PBST. 100 μL of HRP-goat anti-mouse IgG secondary antibody (boster, Catalog No. BA1051) diluted with the blocking buffer was added to each well and incubated at room temperature for 1 hour. The plate was washed three times with PBST. TMB was added to each well. A reaction was performed at room temperature in the dark for 2 min to 5 min. The reaction was terminated with 2 M sulfuric acid. OD450 values were read using a microplate reader.

[2] = target: T2, human CD16A^158V (ACRO biosystems, CD8-H52H4) (human, UniProt P08637 17-208); assay: ELISA, plate coated with human CD16A^158V at 2 µg/mL, HRP-goat anti-mouse IgG, OD450
T2 construct: Bought protein; It is the 158V polymorphic form; also called human CD16A^158V protein
Procedure: as §1, §2

[3] = target: T3, cynomolgus monkey CD16 (ACRO biosystems, FC6-C52H9) (cynomolgus monkey, UniProt Q8SPW2 17-208); assay: ELISA, plate coated with cynomolgus monkey CD16 at 2 µg/mL, HRP-goat anti-mouse IgG, OD450
T3 construct: Bought protein; also called monkey CD16 protein; monkey CD16 antigen
Procedure: as §1, §2

[4] = target: T4, human CD16B^NA1 (ACRO biosystems, CDB-H5227) (human, UniProt O75015 17-200, limits assumed); assay: ELISA, plate coated with human CD16B^NA1 at 2 µg/mL, HRP-goat anti-mouse IgG, OD450
T4 construct: Bought protein; NA1 polymorphic form; also called human CD16B^NA1 protein
Procedure: as §1, §2

[5] = target: T5, cynomolgus monkey CD16 protein on CHO-K1 cells overexpressing cynomolgus monkey CD16 (cynomolgus monkey, UniProt Q8SPW2 17-254); assay: Flow cytometry on CHO-K1 cells overexpressing cynomolgus monkey CD16, Alexa-647 goat anti-mouse secondary antibody, binding proportion (%)
T5 construct: also called CHO cell overexpressing a cynomolgus monkey CD16A protein; monkey CD16A protein
Procedure: (§3) The CHO-K1 cells overexpressing human CD16A or CHO-K1 cells overexpressing cynomolgus monkey CD16 obtained in Example 1 were diluted to 2×10⁶/mL with PBS and added to a 1.5 mL EP tube at a volume of 100 μL/tube. Then, 10 μL of goat serum was added to each tube. The mixture was blocked at 4° C. for 30 min. The CD16A antibody and the control antibody mlgG at gradient concentrations (5-fold serial dilution, with the highest final concentration of 10 μg/mL) were added and incubated at 4° C. for 30 minutes. Each EP tube was filled with 1 mL of PBS and centrifuged at 3,500 rpm for 5 min at 4° C. The supernatant was completely discarded, and the cells were washed once again with PBS. After another centrifugation, the supernatant was completely discarded. The cells were resuspended in 100 μL/tube of PBS. Alexa-647-conjugated goat anti-murine antibody secondary antibody (Invitrogen) was added at […]. The cells were incubated at 4° C. in the dark for 30 min, and were washed twice with PBS and centrifuged. Then, the supernatant was completely discarded. The cells were resuspended in 200 μL/tube of PBS and detected using a flow cytometer.

[6] = target: T6, human CD16B^NA2 (ACRO biosystems, CDB-H5222) (human, UniProt O75015 17-200); assay: ELISA, plate coated with human CD16B^NA2 at 2 µg/mL, HRP-goat anti-mouse IgG, OD450
T6 construct: Bought protein; NA2 polymorphic form; also called human CD16B^NA2 protein
Procedure: as §1, §2

[7] = target: T7, human CD16A^158F (ACRO biosystems, CDA-H5220) (human, UniProt P08637 17-208); assay: ELISA, plate coated with human CD16A^158F at 2 µg/mL, HRP-goat anti-mouse IgG, OD450
T7 construct: extracellular domain; Bought protein; also called human CD16A extracellular segment protein
Procedure: as §1, §2

[8] = target: T8, human CD16A protein on CHO-K1 cells overexpressing human CD16A (human, UniProt P08637 17-254); assay: Flow cytometry on CHO-K1 cells overexpressing human CD16A, Alexa-647 goat anti-mouse secondary antibody, binding proportion (%)
T8 construct: also called CHO cell overexpressing a human CD16A protein
Procedure: as §3

[9] = target: T9, human CD16A antigen (ACRO biosystems, CDD-H52W1) (human, UniProt P08637 17-208, limits assumed); assay: ELISA, plate coated with human CD16A at 2 µg/mL, HRP-goat anti-human IgG, OD450
T9 construct: Bought protein; also called human CD16A protein
Procedure: (§4) Human BCMA (ACRO biosystems, BCA-H522y) or human CD16A antigen (ACRO biosystems, CDD-H52W1) was diluted to 2 μg/mL with the coating buffer (35 mM NaHCO₃, 15 mM Na₂CO₃, pH 9.6). 100 μL of the diluted solution was added to each well of the enzyme-linked plate and incubated overnight at 4° C. Then, the plate was washed three times with PBST (0.05% Tween 20-PBS, pH 7.2). 300 μL of blocking buffer (1% BSA, 0.05% Tween20-PBS, pH 7.2) was added to the plate and left to stand at room temperature for 2 hours. The plate was washed three times with PBST again. The corresponding bispecific antibody or the control antibody hIgG1 was added to each well and incubated at room temperature for 1 hour. The precipitate was washed three times with PBST. 100 μL of HRP-goat anti-human IgG secondary antibody (Jackson ImmunoResearch, 109-036-170) diluted with the blocking buffer was added to each well and incubated at room temperature for 1 hour. The plate was washed three times with PBST. TMB was added to each well. A reaction was performed at room temperature in the dark for 2 min to 5 min. The reaction was terminated by adding 2 M sulfuric acid to each well. OD450 values were read using a microplate reader.

[10] = target: T10, Human BCMA (ACRO biosystems, BCA-H522y) (human, UniProt Q02223 1-54); assay: ELISA, plate coated with human BCMA at 2 µg/mL, HRP-goat anti-human IgG, OD450
T10 construct: Bought protein; also called human BCMA protein; BCMA antigen
T10 sequence (looked up): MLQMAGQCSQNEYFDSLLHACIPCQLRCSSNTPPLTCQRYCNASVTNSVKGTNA
Procedure: as §4

[11] = target: T11, Human B7H6 (ACRO biosystems, B76-H52H8) (human, UniProt Q68D85 25-262); assay: ELISA, plate coated with human B7H6 at 2 µg/mL, HRP-goat anti-human IgG, OD450
T11 construct: Bought protein; also called human B7H6 protein; B7H6 antigen
T11 sequence (looked up): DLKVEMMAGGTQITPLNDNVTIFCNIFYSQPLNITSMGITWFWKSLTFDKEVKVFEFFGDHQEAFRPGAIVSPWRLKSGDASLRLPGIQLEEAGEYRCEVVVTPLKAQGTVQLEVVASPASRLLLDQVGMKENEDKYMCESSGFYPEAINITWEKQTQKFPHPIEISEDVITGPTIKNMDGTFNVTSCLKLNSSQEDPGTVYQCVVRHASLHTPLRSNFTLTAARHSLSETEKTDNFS
Procedure: (§5) Human B7H6 (ACRO biosystems, B76-H52H8) or human CD16A antigen (ACRO biosystems, Catalog No. CDA-H5220) was diluted to 2 μg/mL with the coating buffer (35 mM NaHCO₃, 15 mM Na₂CO₃, pH 9.6). 100 μL of the diluted solution was added to each well of the enzyme-linked plate and incubated overnight at 4° C. Then, the plate was washed three times with PBST (0.05% Tween 20-PBS, pH 7.2). 300 μL of blocking buffer (1% BSA, 0.05% Tween20-PBS, pH 7.2) was added to the plate and left to stand at room temperature for 2 hours. The plate was washed three times with PBST again. The corresponding bispecific antibody or control antibody hIgG was added to each well and incubated at room temperature for 1 hour. Again, the plate was washed three times with PBST. 100 μL of HRP-goat anti-human IgG secondary antibody (Jackson ImmunoResearch, 109-036-170) diluted with the blocking buffer was added to each well and incubated at room temperature for 1 hour. After incubation, the precipitate was washed three times with PBST. TMB was added to each well. A reaction was performed at room temperature in the dark for 2 min to 5 min. The reaction was terminated by adding 2 M sulfuric acid to each well. OD450 values were read using a microplate reader.

[12] = target: T7, human CD16A^158F (ACRO biosystems, …); assay: ELISA, plate coated with human CD16A at 2 µg/mL, HRP-goat anti-human IgG, OD450
Procedure: as §5

T7 sequence (P08637 17-208): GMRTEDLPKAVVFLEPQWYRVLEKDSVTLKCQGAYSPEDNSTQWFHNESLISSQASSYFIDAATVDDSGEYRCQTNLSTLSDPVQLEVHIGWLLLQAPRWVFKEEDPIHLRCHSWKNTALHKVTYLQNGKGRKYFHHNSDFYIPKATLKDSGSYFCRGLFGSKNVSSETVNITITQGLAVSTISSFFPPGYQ
T5 sequence (Q8SPW2 17-254 limits assumed): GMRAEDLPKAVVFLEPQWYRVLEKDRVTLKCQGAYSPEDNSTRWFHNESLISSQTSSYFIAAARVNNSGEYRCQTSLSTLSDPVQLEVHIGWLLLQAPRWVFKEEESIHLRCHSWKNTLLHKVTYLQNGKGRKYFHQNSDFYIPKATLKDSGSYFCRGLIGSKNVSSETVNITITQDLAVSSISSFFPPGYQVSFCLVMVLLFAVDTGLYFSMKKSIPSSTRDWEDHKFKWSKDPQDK
T6 sequence (O75015 17-200 N65S limits assumed): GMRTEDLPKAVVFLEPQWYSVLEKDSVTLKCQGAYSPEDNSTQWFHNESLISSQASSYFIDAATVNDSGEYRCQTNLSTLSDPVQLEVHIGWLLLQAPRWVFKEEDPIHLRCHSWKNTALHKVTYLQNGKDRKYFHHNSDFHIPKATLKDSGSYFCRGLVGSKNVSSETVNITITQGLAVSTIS
T4 sequence (O75015 other isoform, or with tags, fused parts or gaps limits assumed): as the sequence (O75015 17-200 N65S limits assumed) above, with S20R, S49N, N66D, I90V counted along it
T1 sequence (O75015 17-200 N65S/A78D limits assumed): as the sequence (O75015 17-200 N65S limits assumed) above, with A62D counted along it
T8 sequence (P08637 17-254 limits assumed): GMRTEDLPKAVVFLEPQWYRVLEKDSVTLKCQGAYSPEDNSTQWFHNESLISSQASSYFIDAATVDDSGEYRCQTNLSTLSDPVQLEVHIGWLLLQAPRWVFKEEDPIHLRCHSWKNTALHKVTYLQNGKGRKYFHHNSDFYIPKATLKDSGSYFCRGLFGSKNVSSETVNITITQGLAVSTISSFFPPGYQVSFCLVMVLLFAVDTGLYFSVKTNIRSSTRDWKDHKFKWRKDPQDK
T2 sequence (P08637 17-208 F176V limits assumed): as the sequence (P08637 17-208) above, with F160V counted along it
T3 sequence (Q8SPW2 17-208 limits assumed): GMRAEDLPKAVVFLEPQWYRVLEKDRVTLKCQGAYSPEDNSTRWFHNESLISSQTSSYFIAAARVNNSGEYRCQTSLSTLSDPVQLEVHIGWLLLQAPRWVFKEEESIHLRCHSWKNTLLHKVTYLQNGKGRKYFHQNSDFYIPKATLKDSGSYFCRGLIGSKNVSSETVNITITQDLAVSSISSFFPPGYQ
T9 sequence (P08637 17-208 limits assumed): as the sequence (P08637 17-208) above

B1: murine CD16A antibody m40F5 (antibody, mouse IgG2a, kappa)
heavy: DVQLQESGPGLVKPSQSLSLTCTVTGYSITSDYAWNWIRQFPGNKLEWMGYISYSGYTNYNPSLESRISVTRDTSKNQFFLQLNSVTTEDTATYYCAREVGLRLGWFAYWGQGTLVAVSAAKTTAPSVYPLAPVCGDTTGSSVTLGCLVKGYFPEPVTLTWNSGSLSSGVHTFPAVLQSDLYTLSSSVTVTSSTWPSQSITCNVAHPASSTKVDKKIEPRGPTIKPCPPCKCPAPNLLGGPSVFIFPPKIKDVLMISLSPIVTCVVVDVSEDDPDVQISWFVNNVEVHTAQTQTHREDYNSTLRVVSALPIQHQDWMSGKEFKCKVNNKDLPAPIERTISKPKGSVRAPQVYVLPPPEEEMTKKQVTLTCMVTDFMPEDIYVEWTNNGKTELNYKNTEPVLDSDGSYFMYSKLRVEKKNWVERNSYSCSVVHEGLHNHHTTKSFSRTPGK
light: SIVMTQTPKFLLISAGDRVTITCKASQSVNNDVAWYQQKPGQSPKLLIYYASNRYTGVPDHFTGSGYGTDFTFTISTVQAEDLAVYFCQQHYSSPWTFGGGTKLEFKRADAAPTVSIFPPSSEQLTSGGASVVCFLNNFYPKDINVKWKIDGSERQNGVLNSWTDQDSKDSTYSMSSTLTLTKDEYERHNSYTCEATHKTSTSPIVKSFNRNEC
notes: also called murine m40F5 antibody; murine 40F5
[1]
  binding result: no binding (tested: 10^4 ng/ml)
[2]
  EC50 (read off the curve): ~0.03 µg/mL
[3]
  EC50 (read off the curve): ~0.02 µg/mL
[4]
  binding result: no binding (tested: 10^4 ng/ml)
[5]
  EC50 (read off the curve): ~0.005 µg/mL
[6]
  binding result: no binding (tested: 10^4 ng/ml)
[7]
  EC50 (read off the curve): ~0.02 µg/mL
[8]
  EC50 (read off the curve): ~0.02 µg/mL

B2: bispecific antibody CD16A×BCMA (bispecific antibody, human IgG1, L234A L235A)
chain 1: not shown
chain 2: DIQMTQSPSSLSASVGDRVTITCSASQDISNYLNWYQQKPGKAPKLLIYYTSNLHSGVPSRFSGSGSGTDFTLTISSLQPEDFATYYCQQYRKLPWTFGQGTKLEIKRGGGGSGGGGSGGGGSQVQLVQSGAEVKKPGSSVKVSCKASGGTFSNYWMHWVRQAPGQGLEWMGATYRGHSDTYYNQKFKGRVTITADKSTSTAYMELSSLRSEDTAVYYCARGAIYDGYDVLDNWGQGTLVTVSSEPKSCDKTHTCPPCPAPEAAGGPSVFLFPPKPKDTLMISRTPEVTCVVVDVSHEDPEVKFNWYVDGVEVHNAKTKPREEQYNSTYRVVSVLTVLHQDWLNGKEYKCKVSNKALPAPIEKTISKAKGQPREPQVCTLPPSREEMTKNQVSLSCAVKGFYPSDIAVEWESNGQPENNYKTTPPVLDSDGSFFLVSKLTVDKSRWQQGNVFSCSVMHEALHNHYTQKSLSLSPGK
notes: also called CD16A×BCMA bispecific antibody
[9]
  EC50 (read off the curve): ~0.04 µg/mL
[10]
  EC50 (read off the curve): ~0.006 µg/mL

B3: bispecific antibody CD16A×B7H6 (bispecific antibody, human IgG1, L234A L235A)
chain 1: not shown
chain 2: DIVLTQTPLSLSVTPGQPASISCKASQSVDYDGDSYMNWYLQKPGQPPQLLIYAASTLHSGIPDRFSGSGSGTDFTLKISRVEAEDVGVYYCQQSKEDPRTFGQGTKLEIKGGGGSGGGGSGGGGSEVQLVQSGAEVKKPGASVKVSCKASGYTFTDYNMDWVRQAPGQGLEWIGDINPNNGGTLYNQKFRGRVTLTVDTSISTAYMELSRLRSDDTAVYYCARSEVFYGNYADYWGQGTTVTVSSEPKSCDKTHTCPPCPAPEAAGGPSVFLFPPKPKDTLMISRTPEVTCVVVDVSHEDPEVKFNWYVDGVEVHNAKTKPREEQYNSTYRVVSVLTVLHQDWLNGKEYKCKVSNKALPAPIEKTISKAKGQPREPQVCTLPPSREEMTKNQVSLSCAVKGFYPSDIAVEWESNGQPENNYKTTPPVLDSDGSFFLVSKLTVDKSRWQQGNVFSCSVMHEALHNHYTQKSLSLSPGK
notes: also called CD16A×B7H6 bispecific antibody
[11]
  EC50 (read off the curve): ~0.005 µg/mL
[12]
  EC50 (read off the curve): ~0.05 µg/mL
